{"source": "patent US20100055104A1", "about": "(NEUTEC PHARMA, published 2010)", "key": {"recombinant human hsp90α": {"target": "T1, recombinant human hsp90α (human, UniProt P07900 1-732, limits assumed)", "T1 construct": "also called human hsp90a; human hsp 90 alpha", "assay": "Biacore SPR; human hsp90α amine-coupled to CM-5 chip, Mycograb injected; 1:1 Langmuir fit"}, "[1]": {"target": "T2, biotinylated LKVIRK peptide (SEQ ID NO: 4) (also: biotinylated, site not given here)", "T2 construct": "Captured non-covalently on a Sensor Chip SA; Any spacer between the biotin and the peptide is not described; also called immobilised peptide", "T2 peptide": "LKVIRK", "assay": "Biacore SPR; biotinylated peptide captured on SA chip, Mycograb injected; 1:1 Langmuir fit"}, "[2]": {"target": "T3, recombinant hsp90 from Candida albicans (Candida albicans, UniProt P46598 1-707)", "T3 construct": "also called Candida hsp90; Candida albicans hsp90", "T3 sequence (P46598 whole entry)": "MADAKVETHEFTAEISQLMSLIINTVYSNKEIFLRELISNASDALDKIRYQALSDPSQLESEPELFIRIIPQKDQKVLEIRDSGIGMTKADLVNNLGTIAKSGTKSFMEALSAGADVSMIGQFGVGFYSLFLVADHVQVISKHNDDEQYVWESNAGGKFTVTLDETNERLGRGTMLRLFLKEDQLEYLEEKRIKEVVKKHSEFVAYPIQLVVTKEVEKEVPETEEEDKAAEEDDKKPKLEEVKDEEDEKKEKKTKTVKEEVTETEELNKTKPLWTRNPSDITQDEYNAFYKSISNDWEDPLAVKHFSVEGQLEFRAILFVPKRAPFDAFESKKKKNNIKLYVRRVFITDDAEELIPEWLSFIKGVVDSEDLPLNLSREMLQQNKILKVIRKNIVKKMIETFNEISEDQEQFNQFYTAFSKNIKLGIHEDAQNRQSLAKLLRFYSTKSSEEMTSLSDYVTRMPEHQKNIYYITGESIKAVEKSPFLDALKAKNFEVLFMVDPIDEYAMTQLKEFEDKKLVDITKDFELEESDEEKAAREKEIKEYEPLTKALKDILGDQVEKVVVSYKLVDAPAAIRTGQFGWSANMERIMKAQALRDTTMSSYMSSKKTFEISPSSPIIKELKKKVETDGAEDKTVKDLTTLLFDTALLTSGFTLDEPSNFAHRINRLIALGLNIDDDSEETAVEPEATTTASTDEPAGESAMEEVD", "assay": "Biacore SPR; Candida hsp90 amine-coupled to CM-5 chip, Mycograb injected; 1:1 Langmuir fit"}}, "note": "Ends that are not written are not given here.", "data": [{"binder": "Mycograb® (antibody component, SEQ ID NO: 1) (antibody, Formulated as described in WO-A-01/76627; also called Mycogab; Mycograbg) HMAEVQLVESGAEVKKPGESLRISCKGSGCIISSYWISWVRQMPGKGLEWMGKIDPGDSYINYSPSFQGHVTISADKSINTAYLQWNSLKASDTAMYYCARGGRDFGDSFDYWGQGTLVTVSSGGGGSGGGGSGGGGSDVVMTQSPSFLSAFVGDRITITCRASSGISRYLAWYQQAPGKAPKLLIYAASTLQTGVPSRFSGSGSGTEFTLTINSLQPEDFATYYCQHLNSYPLTFGGGTKVDIKRAA", "values": [{"measurement": "Kd", "setting": "recombinant human hsp90α", "value": 3270, "unit": "nM"}, {"measurement": "koff", "setting": "recombinant human hsp90α", "value": 0.00321, "unit": "s⁻¹"}, {"measurement": "kon", "setting": "recombinant human hsp90α", "value": 981, "unit": "M⁻¹ s⁻¹"}, {"measurement": "Kd", "setting": "[1]", "value": 28.6, "unit": "nM"}, {"measurement": "koff", "setting": "[1]", "value": 0.000647, "unit": "s⁻¹"}, {"measurement": "kon", "setting": "[1]", "value": 22600, "unit": "M⁻¹ s⁻¹"}, {"measurement": "Kd", "setting": "[2]", "value": 717, "unit": "nM"}, {"measurement": "koff", "setting": "[2]", "value": 0.000267, "unit": "s⁻¹"}, {"measurement": "kon", "setting": "[2]", "value": 373, "unit": "M⁻¹ s⁻¹"}]}]}
